Test results: the supplement of paper PMC10065799, “High-throughput profiling of sequence recognition by tyrosine kinases and SH2 domains using bacterial peptide display” (eLife, 2023)

How the values were obtained:
[1] = target: MERTK (UniProt Q12866); assay: phosphorylation enrichment, bacterial display (enrichment ratio); higher = better substrate or ligand; peptides without Tyr show the background
[2] = target: FGFR1 (UniProt P11362); assay: as above
[3] = target: Jak2 (UniProt O60674); assay: as above
[4] = test system: c-Src; assay: as above
[5] = test system: c-Abl (mouse); assay: as above
[6] = target: Fes (UniProt P07332); assay: as above
Fes, sequence (P07332 whole entry, looked up): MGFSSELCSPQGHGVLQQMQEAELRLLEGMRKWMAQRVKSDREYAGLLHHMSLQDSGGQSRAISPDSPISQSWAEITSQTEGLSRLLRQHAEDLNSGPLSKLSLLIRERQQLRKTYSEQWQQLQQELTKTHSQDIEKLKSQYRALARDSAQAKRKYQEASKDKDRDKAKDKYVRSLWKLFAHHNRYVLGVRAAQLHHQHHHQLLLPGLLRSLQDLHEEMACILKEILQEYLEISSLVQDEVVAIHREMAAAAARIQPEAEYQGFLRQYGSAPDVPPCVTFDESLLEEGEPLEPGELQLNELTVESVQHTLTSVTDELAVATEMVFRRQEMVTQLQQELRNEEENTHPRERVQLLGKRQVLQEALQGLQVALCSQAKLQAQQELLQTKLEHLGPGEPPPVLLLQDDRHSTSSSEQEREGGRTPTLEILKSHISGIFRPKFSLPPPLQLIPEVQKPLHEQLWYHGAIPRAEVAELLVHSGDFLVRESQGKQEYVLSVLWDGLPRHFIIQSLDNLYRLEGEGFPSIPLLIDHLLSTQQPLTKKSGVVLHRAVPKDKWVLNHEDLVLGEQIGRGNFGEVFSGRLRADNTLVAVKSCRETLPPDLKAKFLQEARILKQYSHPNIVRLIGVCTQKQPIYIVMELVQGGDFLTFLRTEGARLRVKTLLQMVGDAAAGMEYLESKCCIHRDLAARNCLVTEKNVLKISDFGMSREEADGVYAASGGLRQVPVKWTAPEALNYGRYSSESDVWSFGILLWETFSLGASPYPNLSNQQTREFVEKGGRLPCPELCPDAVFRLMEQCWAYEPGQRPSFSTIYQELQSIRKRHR

[7] = test system: Fer (mouse); assay: as above
[8] = target: Fyn (UniProt P06241); assay: as above
[9] = target: EPHB2 (UniProt P29323); assay: as above
EPHB2, sequence (P29323 whole entry, looked up): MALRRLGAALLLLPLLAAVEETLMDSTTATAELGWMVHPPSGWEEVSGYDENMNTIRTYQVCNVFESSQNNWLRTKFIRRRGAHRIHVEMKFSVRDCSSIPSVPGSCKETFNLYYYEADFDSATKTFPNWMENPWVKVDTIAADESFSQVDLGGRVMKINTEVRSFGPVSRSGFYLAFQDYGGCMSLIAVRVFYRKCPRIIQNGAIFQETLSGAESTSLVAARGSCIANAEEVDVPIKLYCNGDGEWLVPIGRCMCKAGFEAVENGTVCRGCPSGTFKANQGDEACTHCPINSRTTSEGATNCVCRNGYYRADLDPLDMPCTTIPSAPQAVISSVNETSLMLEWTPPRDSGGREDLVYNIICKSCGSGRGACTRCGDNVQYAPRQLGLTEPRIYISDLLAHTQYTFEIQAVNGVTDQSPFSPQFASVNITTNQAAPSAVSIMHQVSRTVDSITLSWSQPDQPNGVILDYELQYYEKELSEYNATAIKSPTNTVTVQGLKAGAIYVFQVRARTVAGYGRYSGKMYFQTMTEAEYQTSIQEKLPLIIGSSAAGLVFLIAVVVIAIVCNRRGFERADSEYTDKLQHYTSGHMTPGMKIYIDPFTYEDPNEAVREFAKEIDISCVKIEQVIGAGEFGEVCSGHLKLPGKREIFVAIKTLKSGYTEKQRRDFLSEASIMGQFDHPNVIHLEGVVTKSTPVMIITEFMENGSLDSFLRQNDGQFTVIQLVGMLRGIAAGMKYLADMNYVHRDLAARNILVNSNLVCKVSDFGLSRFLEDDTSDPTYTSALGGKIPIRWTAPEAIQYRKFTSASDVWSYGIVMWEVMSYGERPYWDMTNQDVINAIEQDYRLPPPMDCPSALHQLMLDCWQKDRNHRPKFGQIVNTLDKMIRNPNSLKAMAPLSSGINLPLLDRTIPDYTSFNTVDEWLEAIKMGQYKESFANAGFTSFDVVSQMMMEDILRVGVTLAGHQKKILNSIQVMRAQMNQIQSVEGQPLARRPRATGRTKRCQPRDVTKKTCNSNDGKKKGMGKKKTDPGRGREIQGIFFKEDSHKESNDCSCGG

[10] = target: FGFR3 (UniProt P22607); assay: as above
[11] = target: EPHB1 (UniProt P54762); assay: as above
EPHB1, sequence (P54762 whole entry, looked up): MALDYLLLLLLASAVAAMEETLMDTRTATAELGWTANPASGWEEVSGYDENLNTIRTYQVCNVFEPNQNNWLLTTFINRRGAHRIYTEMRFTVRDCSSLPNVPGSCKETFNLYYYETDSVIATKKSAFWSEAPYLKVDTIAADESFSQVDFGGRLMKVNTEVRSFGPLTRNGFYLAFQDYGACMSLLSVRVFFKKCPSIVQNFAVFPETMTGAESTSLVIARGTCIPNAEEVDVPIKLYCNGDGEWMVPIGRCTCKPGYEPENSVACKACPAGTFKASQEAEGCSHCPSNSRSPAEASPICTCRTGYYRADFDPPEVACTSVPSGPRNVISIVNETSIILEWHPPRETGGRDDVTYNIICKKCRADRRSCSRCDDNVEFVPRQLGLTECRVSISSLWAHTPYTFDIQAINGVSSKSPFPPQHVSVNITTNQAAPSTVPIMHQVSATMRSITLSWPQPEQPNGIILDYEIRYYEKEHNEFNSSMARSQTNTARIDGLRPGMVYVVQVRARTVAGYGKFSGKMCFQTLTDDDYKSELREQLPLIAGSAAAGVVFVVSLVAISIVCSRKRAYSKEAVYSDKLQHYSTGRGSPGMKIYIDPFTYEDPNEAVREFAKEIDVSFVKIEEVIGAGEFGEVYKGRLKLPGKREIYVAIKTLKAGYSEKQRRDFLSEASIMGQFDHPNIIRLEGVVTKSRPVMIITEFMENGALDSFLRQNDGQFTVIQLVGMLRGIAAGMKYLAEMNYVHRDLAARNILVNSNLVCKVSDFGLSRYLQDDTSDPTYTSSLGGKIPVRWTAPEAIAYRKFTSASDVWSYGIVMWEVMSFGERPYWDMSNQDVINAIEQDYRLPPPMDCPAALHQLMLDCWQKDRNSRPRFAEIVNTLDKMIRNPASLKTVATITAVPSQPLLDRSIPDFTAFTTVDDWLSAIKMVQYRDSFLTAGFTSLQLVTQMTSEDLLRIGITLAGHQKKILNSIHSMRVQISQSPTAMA

[12] = test system: AncSZ; assay: as above
[13] = target: Hck (UniProt P08631); assay: as above
[14] = target: c-Src SH2; assay: SH2 binding enrichment of the phosphorylated peptide, bacterial display (enrichment ratio); higher = better substrate or ligand; peptides without Tyr show the background
[15] = target: Grb2 SH2 (UniProt P62993); assay: as above
Grb2 SH2, sequence (P62993 whole entry, looked up): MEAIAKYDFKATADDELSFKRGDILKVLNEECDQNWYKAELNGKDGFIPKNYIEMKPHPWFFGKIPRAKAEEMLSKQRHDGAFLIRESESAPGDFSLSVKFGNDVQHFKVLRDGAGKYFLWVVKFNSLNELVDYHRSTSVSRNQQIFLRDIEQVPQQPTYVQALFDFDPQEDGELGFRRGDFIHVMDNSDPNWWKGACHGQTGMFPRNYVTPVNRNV

[16] = target: SHP2-C SH2; assay: as above
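For SH2 binding enrichment of the phosphorylated peptide, bacterial display in this document: peptide library displayed on the E. coli surface as eCPX fusions, selected cells deep-sequenced, score is each peptide's frequency after selection divided by its frequency in the input.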
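For phosphorylation enrichment, bacterial display in this document: 11-residue human phosphosite peptides and single-mutation variants displayed on the E. coli surface, counted by deep sequencing, each peptide's frequency after selection divided by its frequency in the unselected input library; frequency after pTyr selection over input frequency; kinase dosed for 20-30% of maximal phosphorylation in three min.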

MERTK, sequence (Q12866 whole entry, looked up): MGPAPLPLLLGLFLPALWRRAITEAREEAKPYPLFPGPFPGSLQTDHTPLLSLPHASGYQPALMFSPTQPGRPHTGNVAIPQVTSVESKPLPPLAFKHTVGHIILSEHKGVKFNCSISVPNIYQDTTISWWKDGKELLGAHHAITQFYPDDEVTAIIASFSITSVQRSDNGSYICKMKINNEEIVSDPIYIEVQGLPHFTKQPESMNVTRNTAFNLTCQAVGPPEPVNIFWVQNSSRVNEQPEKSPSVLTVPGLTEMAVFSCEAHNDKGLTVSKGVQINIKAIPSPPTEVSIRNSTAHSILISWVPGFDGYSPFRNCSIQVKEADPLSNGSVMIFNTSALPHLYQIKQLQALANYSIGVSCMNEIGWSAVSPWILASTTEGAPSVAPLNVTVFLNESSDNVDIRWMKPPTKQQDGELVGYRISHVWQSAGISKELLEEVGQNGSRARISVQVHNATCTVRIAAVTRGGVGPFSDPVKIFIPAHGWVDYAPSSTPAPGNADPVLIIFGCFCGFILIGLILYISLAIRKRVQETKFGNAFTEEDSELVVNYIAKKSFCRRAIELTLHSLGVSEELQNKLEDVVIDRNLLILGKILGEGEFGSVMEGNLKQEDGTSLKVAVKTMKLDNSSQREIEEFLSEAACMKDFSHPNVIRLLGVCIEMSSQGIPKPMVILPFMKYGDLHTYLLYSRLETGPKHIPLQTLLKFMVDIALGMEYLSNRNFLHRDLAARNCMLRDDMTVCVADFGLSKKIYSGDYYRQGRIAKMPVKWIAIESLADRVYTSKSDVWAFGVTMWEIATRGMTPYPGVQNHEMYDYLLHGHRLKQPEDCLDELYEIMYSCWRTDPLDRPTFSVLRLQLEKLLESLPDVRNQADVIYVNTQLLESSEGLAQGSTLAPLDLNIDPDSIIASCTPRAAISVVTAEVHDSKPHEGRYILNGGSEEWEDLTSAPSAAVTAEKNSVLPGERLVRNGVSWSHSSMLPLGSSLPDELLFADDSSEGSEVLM
FGFR1, sequence (P11362 whole entry, looked up): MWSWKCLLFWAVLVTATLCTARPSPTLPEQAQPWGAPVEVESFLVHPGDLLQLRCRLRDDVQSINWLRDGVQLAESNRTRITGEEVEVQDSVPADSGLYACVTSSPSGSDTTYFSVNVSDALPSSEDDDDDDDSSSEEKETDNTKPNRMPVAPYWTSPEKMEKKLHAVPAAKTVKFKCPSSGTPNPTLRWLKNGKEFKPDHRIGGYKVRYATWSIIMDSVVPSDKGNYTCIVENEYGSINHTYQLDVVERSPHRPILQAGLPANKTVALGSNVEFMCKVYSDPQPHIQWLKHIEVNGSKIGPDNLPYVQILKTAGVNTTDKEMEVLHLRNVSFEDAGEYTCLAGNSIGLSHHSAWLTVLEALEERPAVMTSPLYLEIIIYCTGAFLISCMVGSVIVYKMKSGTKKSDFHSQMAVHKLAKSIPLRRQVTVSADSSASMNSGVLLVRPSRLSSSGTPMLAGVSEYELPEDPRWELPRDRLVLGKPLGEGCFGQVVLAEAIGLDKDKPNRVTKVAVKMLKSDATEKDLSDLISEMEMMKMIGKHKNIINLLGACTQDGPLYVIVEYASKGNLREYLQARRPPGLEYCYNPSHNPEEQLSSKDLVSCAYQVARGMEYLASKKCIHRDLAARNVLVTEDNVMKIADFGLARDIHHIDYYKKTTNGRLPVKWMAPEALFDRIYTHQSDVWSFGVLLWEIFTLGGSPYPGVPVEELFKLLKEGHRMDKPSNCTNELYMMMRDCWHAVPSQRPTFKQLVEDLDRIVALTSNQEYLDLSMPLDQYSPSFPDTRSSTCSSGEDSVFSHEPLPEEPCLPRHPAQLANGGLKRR

Sequence	phosphorylation enrichment [1]	phosphorylation enrichment [2]	phosphorylation enrichment [3]	phosphorylation enrichment [4]	phosphorylation enrichment [5]	phosphorylation enrichment [6]	phosphorylation enrichment [7]	phosphorylation enrichment [8]	phosphorylation enrichment [9]	phosphorylation enrichment [10]	phosphorylation enrichment [11]	phosphorylation enrichment [12]	phosphorylation enrichment [13]	SH2 binding enrichment [14]	SH2 binding enrichment [15]	SH2 binding enrichment [16]
QKMADYSNKLF [PDPR_Y104_YF]	0.788	0.741	1.41	0.81	1.26	1.41	0.362	0.683	0.647	0.586	0.662	1.16	0.554	0.385	1.03	0.945
QLPRGYISILV [BAG3_Y205_P209L]	0.611	0.589	1.07	0.479	0.806	1.38	0.663	0.563	0.848	0.748	0.583	1.11	0.675	0.6	1.04	0.682
QMQLKYSQSDL [SMC1A_Y714_R711Q]	0.69	0.829	0.569	0.457	0.885	1.32	0.621	0.654	0.494	0.735	0.68	0.973	0.655	0.283	0.529	0.534
QMQNPYSSHSS [MUC13_Y501_R503S]	0.432	0.636	0.467	0.818	0.446	0.659	1.26	1.15	0.718	0.611	0.546	0.625	0.449	0.49	0.921	0.526
QMVRMYASSYM [AVPR2_Y124_G122R]	0.659	0.622	0.764	0.464	0.675	1.28	0.717	0.557	0.787	0.988	0.842	1.31	0.621	0.455	0.899	0.64
QNTGNYFDLFG [PTPN11_Y62_D61N_YF]	10.8	21.2	4.13	0.71	1.28	1.44	0.925	0.541	22.6	15.3	27.6	1.6	0.49	0.599	1.04	0.867
QNTGVYFDLFG [PTPN11_Y62_D61V_YF]	3.19	12.8	1.95	2.02	0.912	1.52	0.831	3.82	1.33	11.6	2.93	2	3.34	0.661	0.731	0.688
QNTGYYYDLYG [PTPN11_Y62_D61Y]	15.6	21.1	8.69	7.11	1.25	1.96	4.32	7.01	17.9	17.8	18.4	1.9	9.49	6.14	1.54	2.18
QQTYTYDSGIH [JUP_Y22]	3.33	1.12	1.2	1.41	0.841	1.35	0.454	1.65	1.5	1.38	1.09	1.45	1.61	0.744	1	0.535
QRIFQYIQSRF [DYRK1B_Y273_YF]	0.728	0.416	1.58	0.557	0.583	1.45	0.693	0.502	0.356	0.619	0.707	1.09	0.572	0.9	1.15	1.17
QTLTDYDIRFF [CSNK2A1_Y131_YF]	0.531	0.569	0.998	0.481	0.737	1.48	0.604	0.709	0.677	0.888	0.626	1.16	0.691	0.413	0.794	0.651
QYQEKYKQMEQ [HCN4_Y531_V534M]	0.287	0.618	0.684	0.374	0.584	1.23	0.632	0.547	0.507	0.827	0.61	0.99	0.431	0.436	0.891	0.705
QYRFIYMAVQH [PTPN11_Y515]	0.729	0.667	1.21	1.93	0.973	1.22	1.29	1.82	0.947	1.48	1.52	1.32	2.21	0.693	1.2	0.713
RAADYYSQQMA [GBP6_Y334]	0.39	1.38	0.672	0.435	0.576	0.619	0.416	0.371	0.339	0.875	0.917	0.537	0.456	0.545	1.01	0.63
RAMPVYKKAEH [TP63_Y231]	0.292	0.304	0.306	0.288	0.301	0.379	0.28	0.337	0.26	0.238	0.197	0.462	0.27	0.351	1.29	0.459
RCKNHYAAFSV [C1QTNF1_Y145_S143N]	0.572	0.488	0.63	0.633	0.72	0.749	0.488	0.415	0.562	0.56	0.286	0.538	0.615	1.67	1.98	1.7
REDVFYTSKLW [AKR1C2_Y81_I79V]	1.3	0.742	1.41	0.662	1.25	1.45	0.422	0.89	0.631	1.05	0.759	1.52	0.802	0.511	0.807	0.729

Sequence	phosphorylation enrichment [1]	phosphorylation enrichment [2]	phosphorylation enrichment [3]	phosphorylation enrichment [4]	phosphorylation enrichment [5]	phosphorylation enrichment [6]	phosphorylation enrichment [7]	phosphorylation enrichment [8]	phosphorylation enrichment [9]	phosphorylation enrichment [10]	phosphorylation enrichment [11]	phosphorylation enrichment [12]	phosphorylation enrichment [13]	SH2 binding enrichment [14]	SH2 binding enrichment [15]	SH2 binding enrichment [16]
RENGPYYTSYP [GDAP2_Y487]	5.69	3.44	0.863	3.17	1.55	1.05	0.618	2.55	1.45	3.32	0.896	1.17	1.98	0.955	1.09	0.597
REVPVYTYSEP [FAM120B_Y368_D370Y]	5.36	1.56	1.13	5.2	1.97	1.82	12.9	9.05	2.33	1.81	3.19	3.86	4.16	3.29	0.853	0.614
RFMELYDLNRD [BBS2_Y648_YF]	0.459	0.762	0.909	2.04	0.556	1.28	0.703	1.25	0.812	0.883	0.61	1.28	1.14	0.563	1.02	1.06
RGDTVYTVNCM [KBTBD13_Y404_R408C]	0.734	0.479	0.844	2.45	0.697	1.08	0.547	3.11	0.636	0.686	0.692	0.937	1.21	0.475	0.752	0.793
RGEKQYLATPL [ALOX12_Y295_A298T]	0.53	1.06	0.931	0.812	1.02	1.01	0.571	0.665	0.342	0.711	0.598	0.861	0.484	0.569	0.784	0.766
RGFRQYAFDGK [HLA-A_Y140_D140Y_YF]	0.584	0.557	0.381	0.653	0.595	0.66	0.425	0.546	0.51	0.779	0.715	0.77	0.711	0.534	0.832	0.794
RHFSSYSQMEN [PKP1_Y120_R116H]	0.562	0.776	0.545	0.414	0.413	1	0.603	0.551	0.768	0.688	0.632	1.02	0.551	2.71	0.991	0.991
RHSGSYLVTSV [APC_Y2838]	0.682	0.438	0.963	0.463	0.611	0.863	0.51	0.431	0.559	0.451	0.505	0.759	0.616	0.604	0.791	0.914
RILENYGADID [DNAH5_Y596_L591R]	0.51	0.765	1.14	0.56	0.951	1.06	0.403	0.726	0.719	0.695	0.717	1.17	0.494	0.802	0.525	0.474
RIRRRYCQVLN [IQCF1_Y144]	0.609	0.708	0.614	0.575	0.455	1.11	0.835	0.583	0.592	0.703	0.784	0.673	0.826	0.482	0.666	0.438
RIVEIYTRRLQ [GCH1_Y175_S176T]	0.605	0.515	0.637	1.01	0.517	0.949	0.436	0.543	0.462	0.632	0.503	0.936	0.613	0.325	0.756	0.58
RKKEEYKMAPY [F8_Y1990_L1994P]	0.933	1.18	1.1	0.816	1.03	1.33	0.926	0.939	0.865	0.941	0.583	1.16	1.06	0.721	1.32	1.02
RKKLFYKADGE [SERPINC1_Y272_E269K]	0.531	0.528	0.732	0.778	0.894	0.648	0.587	0.621	0.579	0.473	0.34	0.624	0.657	0.338	0.733	0.628
RKQQLYTAMEE [CCDC39_Y593]	2.02	0.431	0.836	0.583	0.677	0.963	0.672	0.529	0.534	0.757	0.707	0.933	0.855	3.25	1.29	0.576
RLCQDYDTIGP [ANK1_Y1073]	0.602	0.541	0.778	0.971	0.964	1.44	1.05	0.838	3.94	0.976	2.96	1.88	1.61	1.61	1.35	0.814
RLDPVYFVAPA [LAMC2_Y250]	5.95	6.89	1.73	7.69	1.82	0.787	0.523	11.5	4.85	5.76	5.28	1.46	8.92	0.594	0.897	0.915
